Residue numbers refer to the chain shown, from its start. Names and notes keep the numbering of the source.
Key:
mouse IL-17 [1] = target: T1, mouse IL-17 (mouse, UniProt Q62386 26-158, limits assumed); assay: Biacore SPR, 3 experiments; unit not printed in Table 10
T1 construct: also called mouse IL-17A; rodent IL-17 (mouse)
T1 sequence (looked up): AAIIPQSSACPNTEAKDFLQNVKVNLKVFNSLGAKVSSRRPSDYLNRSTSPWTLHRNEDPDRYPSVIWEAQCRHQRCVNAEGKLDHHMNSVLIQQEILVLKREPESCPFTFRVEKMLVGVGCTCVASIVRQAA

[2] = target: T2, monkey (Rhesus/Cynomolgus) IL-17 (monkey (Rhesus/Cynomolgus), UniProt F6T3G5 24-155); assay: as above
T2 construct: also called monkey IL-17; monkey rIL-17
T2 sequence: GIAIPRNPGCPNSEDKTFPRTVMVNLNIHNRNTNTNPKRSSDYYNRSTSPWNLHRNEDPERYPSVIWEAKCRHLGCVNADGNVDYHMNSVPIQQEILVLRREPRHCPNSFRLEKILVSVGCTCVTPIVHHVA

[3] = target: T3, monkey (Rhesus/Cynomolgus) TNF (monkey (Rhesus/Cynomolgus), UniProt P48094 77-233); assay: as above
T3 construct: also called monkey TNF; monkey rTNF
T3 sequence (P48094 77-233 limits assumed): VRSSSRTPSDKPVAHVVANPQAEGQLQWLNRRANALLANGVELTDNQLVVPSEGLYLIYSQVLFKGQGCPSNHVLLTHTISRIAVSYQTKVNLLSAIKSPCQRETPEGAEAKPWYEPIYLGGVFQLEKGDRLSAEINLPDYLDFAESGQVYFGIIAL

rat IL-17 [4] = target: T4, rat IL-17 (rat, UniProt Q61453 18-150, limits assumed); assay: as above
T4 construct: also called rodent IL-17 (rat)
T4 sequence (looked up): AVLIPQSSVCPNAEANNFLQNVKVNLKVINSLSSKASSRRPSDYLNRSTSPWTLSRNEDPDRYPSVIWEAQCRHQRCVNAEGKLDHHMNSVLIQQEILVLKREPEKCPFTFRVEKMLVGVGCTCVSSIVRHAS

human IL-17A/A homodimer [5] = target: T5, human IL-17A/A homodimer (human, UniProt Q16552 24-155); assay: Biacore SPR, recombinant antigen, mean of 3 experiments
T5 construct: also called hIL-17A/A
T5 sequence: T2 sequence with A3T, T17N, V77I, R104P

human TNF-α [6] = target: T6, human TNF-α (human, UniProt P01375 77-233); assay: as above
T6 construct: also called hTNF-α; hTNF
T6 sequence (P01375 77-233 limits assumed): as the sequence (P48094 77-233 limits assumed) above, with T44R, N72T, L138R counted along it

[7] = target: T7, human IL-17A/F heterodimer (human, UniProt Q16552 24-155; Q96PD4 31-163); assay: as above
T7 construct: also called hIL-17A/F
T7 sequence 1: T2 sequence with A3T, T17N, V77I, R104P
T7 sequence 2: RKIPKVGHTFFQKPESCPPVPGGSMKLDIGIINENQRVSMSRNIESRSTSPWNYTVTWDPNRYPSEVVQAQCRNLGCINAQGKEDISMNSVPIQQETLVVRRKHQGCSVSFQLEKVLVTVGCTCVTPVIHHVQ

rabbit TNF [8] = target: T8, rabbit TNF (rabbit, UniProt P04924 80-235, limits assumed); assay: Biacore SPR
T8 construct: also called rabbit rTNF
T8 sequence (looked up): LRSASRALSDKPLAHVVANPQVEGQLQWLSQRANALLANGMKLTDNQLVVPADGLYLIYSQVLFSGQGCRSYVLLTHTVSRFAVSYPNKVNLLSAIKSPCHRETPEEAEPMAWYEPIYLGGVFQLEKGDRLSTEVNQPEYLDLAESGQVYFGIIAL

rat TNF [9] = target: T9, rat TNF (rat, UniProt P16599 80-235); assay: Biacore SPR
T9 construct: also called rodent TNF (rat); rat rTNF
T9 sequence (looked up): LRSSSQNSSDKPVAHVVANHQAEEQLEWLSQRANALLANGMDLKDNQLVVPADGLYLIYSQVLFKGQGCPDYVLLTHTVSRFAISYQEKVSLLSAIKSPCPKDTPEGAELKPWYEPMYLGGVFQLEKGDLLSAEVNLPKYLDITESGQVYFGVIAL

mouse TNF [10] = target: T10, mouse TNF (mouse, UniProt P06804 80-235); assay: Biacore SPR
T10 construct: also called murine TNF; rodent TNF (mouse)
T10 sequence (looked up): T9 sequence (looked up) with A22V, I58V, S91N, I96V, M117I, L130Q, I143F, T144A

human TNF-α [11] = target: T6, human TNF-α; assay: assay not stated; rounded figure in the dose-selection text, assay not stated
human IL-17A/A homodimer [12] = target: T5, human IL-17A/A homodimer; assay: cell-based or functional assay
rabbit TNF [13] = target: T8, rabbit TNF; assay: cell-based or functional assay
rat TNF [14] = target: T9, rat TNF; assay: cell-based or functional assay
mouse IL-17 [15] = target: T1, mouse IL-17; assay: cell-based or functional assay
mouse TNF [16] = target: T10, mouse TNF; assay: cell-based or functional assay
[17] = target: T2, monkey (Rhesus/Cynomolgus) IL-17; assay: cell-based or functional assay
[18] = target: T3, monkey (Rhesus/Cynomolgus) TNF; assay: cell-based or functional assay
human TNF-α [19] = target: T6, human TNF-α; assay: cell-based or functional assay
rat IL-17 [20] = target: T4, rat IL-17; assay: cell-based or functional assay
human IL-17A/A homodimer [21] = target: T5, human IL-17A/A homodimer; assay: Biacore SPR, 3 experiments; same value as Table 7; unit not printed in Table 10
human TNF-α [22] = target: T6, human TNF-α; assay: as above

B1: ABBV-257 anti-human TNF and IL-17 DVD-Ig binding protein (bispecific antibody, human IgG1, kappa, L234A L235A)
heavy: EVQLVQSGAEVKKPGASVKVSCKASGYTFANYGIIWVRQAPGQGLEWMGWINTYTGKPTYAQKFQGRVTMTTDTSTSTAYMELSSLRSEDTAVYYCARKLFTTMDVTDNAMDYWGQGTTVTVSSGGGGSGGGGSEVQLVQSGAEVKKPGSSVKVSCKASGYTFTDYEIHWVRQAPGQGLEWMGVNDPESGGTFYNQKFDGRVTLTADESTSTAYMELSSLRSEDTAVYYCTRYSKWDSFDGMDYWGQGTTVTVSSASTKGPSVFPLAPSSKSTSGGTAALGCLVKDYFPEPVTVSWNSGALTSGVHTFPAVLQSSGLYSLSSVVTVPSSSLGTQTYICNVNHKPSNTKVDKKVEPKSCDKTHTCPPCPAPEAAGGPSVFLFPPKPKDQLMISRTPEVTCVVVDVSHEDPEVKFNWYVDGVEVHNAKTKPREEQYNSTYRVVSVLTVLHQDWLNGKEYKCKVSNKALPAPIEKTISKAKGQPREPQVYTLPPSREEMTKNQVSLTCLVKGFYPSDIAVEWESNGQPENNYKTTPPVLDSDGSFFLYSKLTVDKSRWQQGNVFSCSVLHEALHNHYTQKSLSLSPGK
light: DIQMTQSPSSLSASVGDRVTITCRASQDISQYLNWYQQKPGKAPKLLIYYTSRLQSGVPSRFSGSGSGTDFTLTISSLQPEDFATYFCQQGNTWPPTFGQGTKLEIKRGGSGGGGSGDIQMTQSPSSLSASVGDRVTITCRASSGIISYIDWFQQKPGKAPKRLIYATFDLASGVPSRFSGSGSGTDYTLTISSLQPEDFATYYCRQVGSYPETFGQGTKLEIKRTVAAPSVFIFPPSDEQLKSGTASVVCLLNNFYPREAKVQWKVDNALQSGNSQESVTEQDSKDSTYSLSSTLTLSKADYEKHKVYACEVTHQGLSSPVTKSFNRGEC
modifications: N-linked glycans on the heavy chain at the asparagine commonly modified on IgG1 antibodies (fucosylated biantennary oligosaccharides with 0, 1 or 2 galactose residues)
notes: It says the constant region carries L234A, L235A and also T250Q and M428L; also called Anti-IL-17/TNF DVD-Ig Protein
For B1, the Kd (mouse IL-17 [1]) was 0.072 nM, the Kd [2] was 0.011 nM and the Kd [3] was 0.024 nM. For the same binder, the Kd (rat IL-17 [4]) was < 0.035 nM, the Kd (human IL-17A/A homodimer [5]) was 0.003 nM and the koff (human IL-17A/A homodimer [5]) was 3e-06 s⁻¹. For the same binder, the kon (human IL-17A/A homodimer [5]) was 1.1e+06 M⁻¹ s⁻¹, the Kd (human TNF-α [6]) was 0.0049 nM and the kon (human TNF-α [6]) was 3.3e+06 M⁻¹ s⁻¹. It also gave a Kd [7] of 0.014 nM, a koff [7] of 4.8e-06 s⁻¹ and a kon [7] of 340000 M⁻¹ s⁻¹. B1: no binding (tested: at concentrations up to 500 nM of rTNF) (rabbit TNF [8]); no binding (tested: at concentrations up to 500 nM of rTNF) (rat TNF [9]); no binding (tested: at concentrations up to 500 nM of rTNF) (mouse TNF [10]). The Kd (human TNF-α [11]) was 0.005 nM, the “IC50, in vitro neutralization assay (In-Vitro Potency)” value (shortened to “IC50, in vitro neutralization assay”) (human IL-17A/A homodimer [12]) was 0.026 nM and the “IC50, in vitro neutralization assay” value (rabbit TNF [13]) was > 1000 nM. The “IC50, in vitro neutralization assay” value (rat TNF [14]) was > 1000 nM, the “IC50, in vitro neutralization assay” value (mouse IL-17 [15]) was 0.239 nM and the “IC50, in vitro neutralization assay” value (mouse TNF [16]) was > 1000 nM. For the same binder, the “IC50, in vitro neutralization assay” value [17] was 0.032 nM, the “IC50, in vitro neutralization assay” value [18] was 0.025 nM and the “IC50, in vitro neutralization assay” value (human TNF-α [19]) was 0.025 nM. For the same binder, the “IC50, in vitro neutralization assay” value (rat IL-17 [20]) was 0.135 nM, the Kd (human IL-17A/A homodimer [21]) was 0.003 nM and the Kd (human TNF-α [22]) was 0.0049 nM.
